Laboratory results: patent US20170321196A1, “ANALYTICAL AND DIAGNOSTIC METHODS UTILIZING SHIGELLA FLEXNERI APYRASE” (priority 2014, published 2017)
Several values for one entry are separate records, joined by “and”; a condition that tells them apart may be missing. Equal entries are not always repeated. Entries after “also recorded” stand apart in the source; their conditions may differ.

Experiments:
firefly luciferase = molecular target: T1, firefly luciferase (Photinus pyralis, UniProt P08659); test: Inhibitor development: effect on luciferase; format: biochemical
T1 construct: purchased BioThema AB, Sweden ATP Kit SL
T1 sequence (P08659 whole entry): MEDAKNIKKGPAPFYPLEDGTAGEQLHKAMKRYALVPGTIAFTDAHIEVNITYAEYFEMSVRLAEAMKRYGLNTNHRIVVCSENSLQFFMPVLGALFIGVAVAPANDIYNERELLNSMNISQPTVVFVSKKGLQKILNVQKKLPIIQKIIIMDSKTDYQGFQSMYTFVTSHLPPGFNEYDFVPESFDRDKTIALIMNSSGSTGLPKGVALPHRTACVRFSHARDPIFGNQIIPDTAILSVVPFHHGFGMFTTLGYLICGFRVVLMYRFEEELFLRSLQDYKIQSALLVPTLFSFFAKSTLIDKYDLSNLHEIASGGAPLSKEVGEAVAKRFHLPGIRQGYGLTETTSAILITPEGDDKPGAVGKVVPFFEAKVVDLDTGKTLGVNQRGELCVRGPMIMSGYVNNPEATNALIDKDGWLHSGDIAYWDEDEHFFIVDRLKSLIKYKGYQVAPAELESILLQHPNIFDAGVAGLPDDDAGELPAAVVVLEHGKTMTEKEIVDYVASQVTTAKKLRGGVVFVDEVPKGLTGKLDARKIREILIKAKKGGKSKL
Protocol: After checking the rSFA inhibitory activity in buffer, it was verified with urine, where 10 μl were added with 80 μl of cell lysate reagent and 10 μmol/L of ATP. […]

rSFA = test: Inhibitor development: inhibition of rSFA; format: biochemical, Shigella flexneri
Protocol: After checking the rSFA inhibitory activity in buffer, it was verified with urine, where 10 μl were added with 80 μl of cell lysate reagent and 10 μmol/L of ATP. About 100 mM of MgSO4 and 1 mM of Na3VO4 were added in separate tubes and incubated for 10 min before measuring the light emission using firefly luciferase.

[1] = ATP elimination in urine, bioluminescent assay; format: biochemical; settings: for time to complete ATP elimination: after 4 subsequent injections of 10 μL 10 μmol/L ATP
Protocol: (§1) Light emission from the firefly-luciferase reaction was measured at 25° C. in a 1251 Luminometer (LKB-Wallac; Finland) using the ATP Kit SL (BioThema AB, Sweden) according to the manufacture's instruction (in buffer experiment) or adding concentrated luciferase (in serum/urine experiments). Initially luciferase reaction follows first-order kinetics and the ATP Reagent SL in this kit produces light intensity proportional to the ATP concentration. A plot of the natural logarithm of the light intensity versus time yields a straight line with the slope representing the rate constant of the reaction. Starting concentration of STA, A6535, A6237 (Sigma-Aldrich) was adjusted similar to rSFA. BL-reaction was started automatically upon addition of 0.2 μmol/L ATP, and the light intensity was measured every 10 second for 10 minutes (in buffer experiment) or 30 minutes (in serum and urine experiments), in the reaction volume of 0.5 mL.

[2] = HPLC analysis of nucleotide degradation: dCTP; format: biochemical
Protocol: (§2) To compare rSFA activity on nucleotides to that of STA, ATP, dATP, dTTP, dGTP and dCTP were incubated with the enzymes (same initial activity) for 5 min and 35 min and the resulting products were detected using high performance liquid chromatography (HPLC).
(§3) The dNTP Standard preparation was prepared to contain final concentration of 0.1 mM […]. Nucleosides ATP/dATP/dCTP/dGTP/dTTP were suspended in Tris-EDTA buffer and diluted 10 times with the mobile phase (70% acetonitrile, 30% ammonium acetate pH 5.35). The above-prepared nucleosides were individually incubated with equal amounts of rSFA and STA for 35 min at pH 7.75 and 5 μl of the mixture was injected into HPLC instrument (SeQuant ZIC®-pHILIC column, Merck Millipore) at a flow rate of 0.7 mL/min using a pump (Jasco PU-2089 Plus). Peaks were detected at 254 nm by UV-2075 Plus detector and the chromatographic separation was achieved using isocratic elution. Analysis was performed using Chrompass software, where each nucleotide/nucleoside was identified by comparison with retention time of the respective standards.

[3] = Elimination of extracellular ATP in serum, bioluminescent assay; format: biochemical; set-up: ATP depletion rate: unit not given beside the values; settings: for time after which no further ATP elimination: 10% serum, FIG. 8; for time to complete hydrolysis of ATP and its analogues: 100% crude serum, FIG. 6A
Protocol: (§4) Cuvettes contained 100 μL sample in a total volume of 1 mL containing ATP Reagent SL (BioThema AB, Sweden) in 0.07 mol/L Tris- EDTA Buffer and the reaction was started by injection of 10 μL 10 μmol/L ATP Standard. The initial apyrase activity was determined as described by Lundin and coworkers (Analytical Biochemistry 75, 611-620 (1976) and Methods in Enzymology vol 305, 346-370 (2000)) with some modifications. Bioluminescence was measured at every 10 s during 1 min, in the fully automatic 1251 Luminometer (LKB-Wallac, Turku, Finland). To this, 10 μl of 10 μmol/L ATP was added to determine the background ground luminescence. The temperature control was set to 25° C. and bioluminescence was measured from several cuvettes in parallel during 30 or 60 minutes and compared to residual ATP after various incubation times using rSFA and STA. This was repeated with rSFA and STA and a graph was plotted by keeping the ATP-degradation rate as internal control to determine the ATP-degradation efficiency of both of the enzyme sources.
as §1

[4] = HPLC analysis of nucleotide degradation: ATP; format: biochemical; settings: for time to complete conversion of ATP: STA to ADP and AMP, rSFA to AMP
Protocol: as §2, §3

[5] = HPLC analysis of nucleotide degradation: dATP; format: biochemical
Protocol: as §2, §3

[6] = Buffer optimization: rSFA activity after storage, bioluminescent ATP-elimination assay; format: physicochemical; settings: stored in Buffer 3 about 10 months at +4° C.; compared with Buffer 1 and 2
Protocol: Equal concentration of rSFA was stored in Buffer 1(20 mM Tris, 1 mM EDTA, 1% BSA, 25 mM MgSO4, pH 7.5), Buffer 2 (20 mM Tris, 25 mM MgSO4, 2.5% BSA, pH 7.5) and Buffer 3 (20 mM HEPES, 500 mM NaCl, 25 mM MgSO4, pH 7.5) for about 10 months at 4° C. Bioluminescence activity assay was performed as described below to detect the activity of rSFA after storage.

[7] = HPLC analysis of nucleotide degradation: dTTP; format: biochemical; settings: STA to TDP and TMP, rSFA to TMP
Protocol: as §2, §3

[8] = ATP degradation by apyrase in buffer, firefly luciferase bioluminescent assay; format: biochemical; settings: for time to eliminate ATP: enzymes diluted 10× in Tris-EDTA Buffer; for ATP depletion rate: No serum (Negative control)
Protocol: as §4, §1

[9] = Hydrolysis of ADP and ATP/ADP mixture in urine; format: biochemical; settings: 10 μmol/L, FIG. 10
Protocol: as §1, with “BL-reaction was started automatically upon addition of 0.2 μmol/L ATP, and the light intensity was measured every 10 second for 10 minutes (in buffer experiment) or 30 minutes (in serum and urine experiments), in the reaction volume of 0.5 mL.” left out

[10] = ATP degradation by apyrase in buffer, firefly luciferase bioluminescent assay; format: biochemical
[11] = SFA stability to freeze-thaw and refrigerator storage; format: physicochemical; settings: crude form, without addition of stabilizers
Protocol: The rSFA samples were kept at 4° C., then frozen and freeze-thawed to check its stability. An effort was made to see if the rSFA could be used to prepare a reagent for the depletion of extraneous ATP in biological samples.

[12] = SFA activity across pH and in EDTA; format: biochemical
[13] = Undiluted serum (100% crude serum)

## O=S(=O)([O-])[O-].[Mg+2] [MgSO4]
Firefly luciferase; 100 mM MgSO4
  effect on luciferase activity: affected the activity of luciferase
Firefly luciferase; magnesium at 50 mM
  effect on luciferase activity: decreased the activity of luciferase
rSFA; 100 mM MgSO4
  inhibition of rSFA activity: showed inhibitory action
rSFA; magnesium at 50 mM
  inhibition of rSFA activity: completely inhibit

## [O]=[V]([O-])([O-])[O-] [ortho-vanadate]
Firefly luciferase; 1 mM ortho-vanadate
  effect on luciferase activity: did not affect luciferase at all
rSFA; 1 mM ortho-vanadate (Na3VO4)
  inhibition of rSFA activity: completely inhibited

B1: rSFA: Recombinant Shigella flexneri apyrase with 6-His tag, amino-acid sequence SEQ ID NO: 4, expressed in E. coli BL21-A1 (protein, listed as Shigella flexneri)
chain: DIHMKTKNFLLFCIATNMIFIPSANALKAEGFLTQQTSPDSLSILPPPPAENSVVFQADKAHYEFGRSLRDANRVRLASEDAYYENFGLAFSDAYGMDISRENTPILYQLLTQVLQDSHDYAVRNAKEYYKRVRPFVIYKDATCTPDKDEKMAITGSYPSGHASFGWAVALILAEINPQRKAEILRRGYEFGESRVICGAHWQSDVEAGRLMGASVVAVLHNTPEFTKSLSEAKKEFEELNTPTNELTPHHHHHHRTMF
modifications: 6-His tag
[1]
  time to complete ATP elimination: less than 3 min
[2]
  time to complete conversion of dCTP into CMP: less than 5 min
[3]; 10% Diluted serum
  ATP depletion rate: 1.774
[3]
  time after which no further ATP elimination: > 30 min
  time to complete hydrolysis of ATP and its analogues: ~17 min
[3]; [13]
  ATP depletion rate: 1.816
[4]
  time to complete conversion of ATP: less than 5 min
[5]
  time to full conversion of dATP into dAMP: less than 5 min
[6]
  activity after storage: particularly good activity; also recorded: very good activity
[7]
  time to conversion of dTTP: less than 5 min
[8]; FIG. 4
  rate constant of ATP elimination: 3.87 min⁻¹
  time to eliminate ATP: ~10 min and ~15 min
[8]
  ATP depletion rate: 3.98
[8]; in buffer, FIG. 7
  time after which saturated and ineffective in further reducing the ATP concentration: > 300 s
[9]
  change of activity with ADP or mixture of ADP and ATP: no substantial difference; also recorded: not affected

B2: STA: Solanum tuberosum apyrase, commercially available potato apyrase from Sigma-Aldrich, SEQ ID NO: 9 (protein, listed as Solanum tuberosum)
chain: MLNQNSHFIFIILAIFLVLPLSLLSKNVNAQIPLRRHLLSHESEHYAVIFDAGSTGSRVHVFRFDEKLGLLPIGNNIEYFMATEPGLSSYAEDPKAAANSLEPLLDGAEGVVPQELQSETPLELGATAGLRMLKGDAAEKILQAVRNLVKNQSTFHSKDQWVTILDGTQEGSYMWAAINYLLGNLGKDYKSTTATIDLGGGSVQMAYAISNEQFAKAPQNEDGEPYVQQKHLMSKDYNLYVHSYLNYGQLAGRAEIFKASRNESNPCALEGCDGYYSYGGVDYKVKAPKKGSSWKRCRRLTRHALKINAKCNIEECTFNGVWNGGGGDGQKNIHASSFFYDIGAQVGIVDTKFPSALAKPIQYLNAAKVACQTNVADIKSIFPKTQDRNIPYLCMDLIYEYTLLVDGFGLNPHKEITVIHDVQYKNYLVGAAWPLGCAIDLVSSTTNKIRVASS
[1]; FIG. 9
  time after which rate of action was hindered: 3 min
[1]
  time to complete ATP elimination: > 20 min
[2]; after 35 min
  portion of dCTP converted into CDP and CMP: only half
[3]; 10% Diluted serum
  ATP depletion rate: 2.429
[3]
  time after which no further ATP elimination: 6 min
  time to complete hydrolysis of ATP and its analogues: ~45 min
[3]; [13]
  ATP depletion rate: 0.5536
[4]; 5 min incubation
  cleavage of ATP to ADP and AMP: only partially cleaved
[4]
  time to complete conversion of ATP: 35 min
[5]; after 35 min of incubation
  dATP remaining: more than 25%
[7]
  time to conversion of dTTP: 35 min
[8]
  Initial activity: 4.12 Units/mg protein
  ATP depletion rate: 3.52
[8]; FIG. 4
  time to eliminate ATP: > 60 min
[8]; after 1 min
  Remaining ATP activity after 1 min: 1.1876%
[8]; after 17 min
  Remaining ATP activity after 17 min: 0.0367%
[8]; after one minute
  amount of ATP remaining lower in STA samples compared to rSFA (factor): ~2
[9]
  change of activity with ADP or mixture of ADP and ATP: considerably decreased
[10]
  Remaining ATP activity after 91 min: 0.0228%

B3: SFA: Apyrase derived from Shigella flexneri, recombinant or non-recombinant; native sequence SEQ ID NO: 10 (protein, listed as Shigella flexneri)
chain: MKTKNFLLFCIATNMIFIPSANALKAEGFLTQQTSPDSLSILPPPPAENSVVFQADKAHYEFGRSLRDANRVRLASEDAYYENFGLAFSDAYGMDISRENTPILYQLLTQVLQDSHDYAVRNAKEYYKRVRPFVIYKDATCTPDKDEKMAITGSYPSGHASFGWAVALILAEINPQRKAEILRRGYEFGESRVICGAHWQSDVEAGRLMGASVVAVLHNTPEFTKSLSEAKKEFEELNTPTNELTP
[11]
  stability: tolerates freeze-thaw-cycles and storage in solution at refrigerator temperatures
[12]
  activity in high concentrations of EDTA: remains to be active
  pH range of very good activity: 7.0-7.5
